Assay results published in patent US20100047228A1.

Tests used:
Assay in all cases: cell-based or functional assay
mini-plasmin (human) = mini-plasmin (human) (UniProt P00747)
delta-plasmin (human) = delta-plasmin (human) (UniProt P00747)
micro-plasmin = micro-plasmin (UniProt P00747)
plasmin (human) = plasmin (human) (UniProt P00747)
Chain of plasmin (human) (P00747 20-580, chain 1 of 2): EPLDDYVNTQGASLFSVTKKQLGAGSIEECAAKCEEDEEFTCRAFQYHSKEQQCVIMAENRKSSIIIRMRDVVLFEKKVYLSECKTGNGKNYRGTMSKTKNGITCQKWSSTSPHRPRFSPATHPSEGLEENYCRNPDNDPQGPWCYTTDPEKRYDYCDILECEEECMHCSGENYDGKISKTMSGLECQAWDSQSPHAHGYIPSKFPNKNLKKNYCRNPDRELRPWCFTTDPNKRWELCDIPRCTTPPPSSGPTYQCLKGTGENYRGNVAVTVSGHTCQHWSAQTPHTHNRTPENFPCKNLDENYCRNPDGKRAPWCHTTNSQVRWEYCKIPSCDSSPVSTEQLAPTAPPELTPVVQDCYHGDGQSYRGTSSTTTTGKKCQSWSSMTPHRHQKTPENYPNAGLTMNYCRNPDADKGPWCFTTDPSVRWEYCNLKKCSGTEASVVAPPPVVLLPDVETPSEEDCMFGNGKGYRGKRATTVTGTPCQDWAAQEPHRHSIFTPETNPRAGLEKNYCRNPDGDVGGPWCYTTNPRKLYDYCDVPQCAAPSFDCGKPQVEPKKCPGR
Chain of plasmin (human) (P00747 581-810, chain 2 of 2): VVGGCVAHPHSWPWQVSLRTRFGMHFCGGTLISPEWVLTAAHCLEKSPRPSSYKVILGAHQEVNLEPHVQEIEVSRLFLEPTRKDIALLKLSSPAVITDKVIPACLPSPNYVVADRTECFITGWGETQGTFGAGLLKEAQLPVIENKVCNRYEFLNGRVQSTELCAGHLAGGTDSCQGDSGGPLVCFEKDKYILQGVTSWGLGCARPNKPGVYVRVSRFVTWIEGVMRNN

Chain of micro-plasmin (P00747 562-810 limits assumed): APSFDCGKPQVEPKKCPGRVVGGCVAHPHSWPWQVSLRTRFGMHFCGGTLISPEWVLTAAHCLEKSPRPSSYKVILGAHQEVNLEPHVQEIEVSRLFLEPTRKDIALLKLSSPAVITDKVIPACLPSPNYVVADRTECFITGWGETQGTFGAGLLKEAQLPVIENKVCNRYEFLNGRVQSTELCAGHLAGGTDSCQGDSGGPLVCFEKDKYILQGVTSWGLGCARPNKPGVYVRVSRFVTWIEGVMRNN
Chain of delta-plasmin (human) (P00747 other isoform, or with tags, fused parts or gaps mutant limits assumed): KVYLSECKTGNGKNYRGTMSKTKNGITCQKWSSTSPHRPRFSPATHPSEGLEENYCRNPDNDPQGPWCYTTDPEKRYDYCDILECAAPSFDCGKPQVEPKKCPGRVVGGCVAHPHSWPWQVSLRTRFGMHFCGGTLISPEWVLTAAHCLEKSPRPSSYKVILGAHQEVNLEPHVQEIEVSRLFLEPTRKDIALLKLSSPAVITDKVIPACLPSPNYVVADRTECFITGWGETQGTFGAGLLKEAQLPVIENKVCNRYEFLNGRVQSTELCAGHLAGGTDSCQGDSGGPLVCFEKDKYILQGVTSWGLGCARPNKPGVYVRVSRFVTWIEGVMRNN
Chain of mini-plasmin (human) (P00747 462-580, chain 1 of 2): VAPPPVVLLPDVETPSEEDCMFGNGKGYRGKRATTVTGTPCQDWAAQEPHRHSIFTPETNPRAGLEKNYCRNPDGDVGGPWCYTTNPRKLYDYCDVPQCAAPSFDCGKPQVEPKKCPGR
Chain of mini-plasmin (human) (P00747 581-810, chain 2 of 2): as the sequence (P00747 581-810, chain 2 of 2) above

B1: α2-macroglobulin (protein, UniProt P01023 24-1474, looked up)
chain: SVSGKPQYMVLVPSLLHTETTEKGCVLLSYLNETVTVSASLESVRGNRSLFTDLEAENDVLHCVAFAVPKSSSNEEVMFLTVQVKGPTQEFKKRTTVMVKNEDSLVFVQTDKSIYKPGQTVKFRVVSMDENFHPLNELIPLVYIQDPKGNRIAQWQSFQLEGGLKQFSFPLSSEPFQGSYKVVVQKKSGGRTEHPFTVEEFVLPKFEVQVTVPKIITILEEEMNVSVCGLYTYGKPVPGHVTVSICRKYSDASDCHGEDSQAFCEKFSGQLNSHGCFYQQVKTKVFQLKRKEYEMKLHTEAQIQEEGTVVELTGRQSSEITRTITKLSFVKVDSHFRQGIPFFGQVRLVDGKGVPIPNKVIFIRGNEANYYSNATTDEHGLVQFSINTTNVMGTSLTVRVNYKDRSPCYGYQWVSEEHEEAHHTAYLVFSPSKSFVHLEPMSHELPCGHTQTVQAHYILNGGTLLGLKKLSFYYLIMAKGGIVRTGTHGLLVKQEDMKGHFSISIPVKSDIAPVARLLIYAVLPTGDVIGDSAKYDVENCLANKVDLSFSPSQSLPASHAHLRVTAAPQSVCALRAVDQSVLLMKPDAELSASSVYNLLPEKDLTGFPGPLNDQDNEDCINRHNVYINGITYTPVSSTNEKDMYSFLEDMGLKAFTNSKIRKPKMCPQLQQYEMHGPEGLRVGFYESDVMGRGHARLVHVEEPHTETVRKYFPETWIWDLVVVNSAGVAEVGVTVPDTITEWKAGAFCLSEDAGLGISSTASLRAFQPFFVELTMPYSVIRGEAFTLKATVLNYLPKCIRVSVQLEASPAFLAVPVEKEQAPHCICANGRQTVSWAVTPKSLGNVNFTVSAEALESQELCGTEVPSVPEHGRKDTVIKPLLVEPEGLEKETTFNSLLCPSGGEVSEELSLKLPPNVVEESARASVSVLGDILGSAMQNTQNLLQMPYGCGEQNMVLFAPNIYVLDYLNETQQLTPEIKSKAIGYLNTGYQRQLNYKHYDGSYSTFGERYGRNQGNTWLTAFVLKTFAQARAYIFIDEAHITQALIWLSQRQKDNGCFRSSGSLLNNAIKGGVEDEVTLSAYITIALLEIPLTVTHPVVRNALFCLESAWKTAQEGDHGSHVYTKALLAYAFALAGNQDKRKEVLKSLNEEAVKKDNSVHWERPQKPKAPVGHFYEPQAPSAEVEMTSYVLLAYLTAQPAPTSEDLTSATNIVKWITKQQNAQGGFSSTQDTVVALHALSKYGAATFTRTGKAAQVTIQSSGTFSSKFQVDNNNRLLLQQVSLPELPGEYSMKVTGEGCVYLQTSLKYNILPEKEEFPFALGVQTLPQTCDEPKAHTSFQISLSVSYTGSRSASNMAIVDVKMVSGFIPLKPTVKMLERSNHVSRTEVSSNHVLIYLDKVSNQTLSLFFTVLQDVPVRDLKPAIVKVYDYYETDEFAIAEYNAPCSKDLGNA
inhibition rate (mini-plasmin (human)): 750000 M⁻¹ s⁻¹
inhibition rate (delta-plasmin (human)): 760000 M⁻¹ s⁻¹
inhibition rate (micro-plasmin): 780000 M⁻¹ s⁻¹
inhibition rate (plasmin (human)): 650000 M⁻¹ s⁻¹

B2: α2-antiplasmin (protein, UniProt P08697 40-491, looked up)
chain: NQEQVSPLTLLKLGNQEPGGQTALKSPPGVCSRDPTPEQTHRLARAMMAFTADLFSLVAQTSTCPNLILSPLSVALALSHLALGAQNHTLQRLQQVLHAGSGPCLPHLLSRLCQDLGPGAFRLAARMYLQKGFPIKEDFLEQSEQLFGAKPVSLTGKQEDDLANINQWVKEATEGKIQEFLSGLPEDTVLLLLNAIHFQGFWRNKFDPSLTQRDSFHLDEQFTVPVEMMQARTYPLRWFLLEQPEIQVAHFPFKNNMSFVVLVPTHFEWNVSQVLANLSWDTLHPPLVWERPTKVRLPKLYLKHQMDLVATLSQLGLQELFQAPDLRGISEQSLVVSGVQHQSTLELSEVGVEAAAATSIAMSRMSLSSFSVNRPFLFFIFEDTTGLPLFVGSVRNPNPSAPRELKEQQDSPGNKDFLQSLKGFPRGDKLFGPDLKLVPPMEEDYPQFGSPK
inhibition rate (mini-plasmin (human)): 240000 M⁻¹ s⁻¹
inhibition rate (delta-plasmin (human)): 1e+07 M⁻¹ s⁻¹
inhibition rate, fold against micro-plasmin or mini-plasmin (delta-plasmin (human)): 40 fold
rate of inhibition (delta-plasmin (human)): 1.1e+07 M⁻¹ s⁻¹
inhibition rate (micro-plasmin): 180000 M⁻¹ s⁻¹
inhibition rate (second of two separate experiments) (micro-plasmin): 310000 M⁻¹ s⁻¹
